Experiments:
Format in all cases: cell-based, human
β-catenin signaling [1] = experiment: TOPflash luciferase assay in HEK-293 cells: inhibition of RSPO activity by soluble LGR5; settings: LGR5-Fc 20 to 0.02 μg/ml; controls 20 μg/ml
Procedure: Conditioned medium from human lung tumor #1 cells was prepared as described in Example 3 and soluble LGR5-Fc and RSPO2-Fc were produced as described in Example 2.
HEK-293 cells were transfected with a 6×TCF-luciferase reporter vector (TOPflash, Millipore, Billerica, Mass.). After 24-48 hrs, the transfected cells were incubated with medium containing 25% lung tumor cell-conditioned medium plus 25% Wnt3a-L cell-conditioned medium or medium containing RSPO2 (1 Ong/ml) plus 25% Wnt3a-L cell-conditioned medium. Soluble LGR5 was added to the cells in 4-fold serially dilutions at 20 μg/ml to 0.02 μg/ml. Soluble Jag-Fc protein was used as a negative control at 20 μg/ml and FZD8-Fc protein was used as a positive control at 20 μg/ml. The cells were incubated for 16 hours and luciferase activity was measured using Steady-Glo® Luciferase Assay System according to the manufacturer's instructions (Promega, Madison, Wis.).

β-catenin signaling [2] = experiment: Co-culture 6xTCF-luciferase assay in STF-293 cells with lung (LU2, LU25) and ovarian (OV38) tumor cells and supernatants; settings: tumor cells LU2, LU25, OV38; 10 μg/ml
Procedure: Similar experiments were undertaken using co-culture assays using lung tumor cell-conditioned medium and ovarian tumor cell-conditioned medium. As described above, freshly processed tumor cells depleted of stroma cells were cultured overnight. Culture medium and cells were transferred to STF-293 cells with or without Wnt3a L-cell-conditioned medium. LGR5-Fc fusion protein, a FZD8-Fc fusion protein, or a control Fc fusion protein was added (10 μg/ml). The cells were incubated for 20 hours and luciferase activity was measured as described above.

β-catenin signaling [3] = experiment: Luciferase assay in STF-293 cells with LU2 cells, lung tumor cell-conditioned medium and Wnt3a-L cell-conditioned medium; settings: increasing concentrations, 50 to 0.0006 μg/ml
Procedure: Conditioned medium from human lung tumor LU2 cells was prepared as described in Example 3 and soluble LGR5-Fc was produced as described in Example 2.
STF-293 cells were incubated with LU2 cells plus 25% lung tumor cell-conditioned medium plus 25% Wnt3a-L cell-conditioned medium. Antibody 130M23 and soluble LGR5-Fc were added to the cells in 5-fold serially dilutions from 50 μg/ml to 0.0006 μg/ml. An irrelevant monoclonal antibody, similarly diluted, and a control Fc fusion protein (50 ug/ml) were used as negative controls. The cells were incubated for 20 hours and luciferase activity was measured using Steady-Glo® Luciferase Assay System according to the manufacturer's instructions (Promega, Madison, Wis.).

β-catenin signaling [4] = experiment: 6xTCF-luciferase reporter assay in STF-293 cells with lung tumor cell-conditioned medium (LT); settings: Fc proteins 10 μg/ml, antibodies 40 μg/ml
Procedure: To prepare cell suspensions, fresh human lung adenocarcinoma xenograft tumors (lung tumor #1 in Table 2) propagated in NOD/SCID mice were minced and digested in medium 199 (Invitrogen, Carlsbad, Calif.) containing 300 U/ml collagenase type 3 (Worthington, Lakewood, N.J.) and 200 U/ml DNase I (Worthington, Lakewood, N.J.) for 1 to 2 hours at 37° C. The lung tumor cells were filtered through a 40 μm nylon strainer (BD Falcon, Franklin Lakes, N.J.), and spun down at 82×g for 5 minutes. Red blood cells were lysed in ACK buffer (0.8% ammonium chloride, 0.1 mM EDTA, 10 mM sodium bicarbonate, […]), washed, and centrifuged at 150×g for 5 minutes in medium consisting of HBSS (Mediatech, Manassas, Va.), 25 mM HEPES buffer (Mediatech, Manassas, Va.) and 2% heat-inactivated fetal bovine serum (HI-FBS; Invitrogen, Carlsbad, Calif.). Dead cells and debris were removed by centrifugation on a cushion of HI-FBS at 82×g for 8 minutes. […]
STF-293 cells are stably transfected with a 6×TCF-luciferase reporter vector. […] The cells were incubated for 16 hours and luciferase activity was measured using Steady-Glo® Luciferase Assay System according to the manufacturer's instructions (Promega, Madison, Wis.). […]

B1: LGR5-Fc: soluble fusion protein: amino acids 22-564 of human LGR5 ligated to human Fc (protein)
chain: GSSPRSGVLLRGCPTHCHCEPDGRMLLRVDCSDLGLSELPSNLSVFTSYLDLSMNNISQLLPNPLPSLRFLEELRLAGNALTYIPKGAFTGLYSLKVLMLQNNQLRHVPTEALQNLRSLQSLRLDANHISYVPPSCFSGLHSLRHLWLDDNALTEIPVQAFRSLSALQAMTLALNKIHHIPDYAFGNLSSLVVLHLHNNRIHSLGKKCFDGLHSLETLDLNYNNLDEFPTAIRTLSNLKELGFHSNNIRSIPEKAFVGNPSLITIHFYDNPIQFVGRSAFQHLPELRTLTLNGASQITEFPDLTGTANLESLTLTGAQISSLPQTVCNQLPNLQVLDLSYNLLEDLPSFSVCQKLQKIDLRHNEIYEIKVDTFQQLLSLRSLNLAWNKIAIIHPNAFSTLPSLIKLDLSSNLLSSFPITGLHGLTHLKLTGNHALQSLISSENFPELKVIEMPYAYQCCAFGVCENAYKISNQWNKGDNSSMDDLHKKDAGMFQAQDERDLEDFLLDFEEDLKALHSVQCSPSPGPFKPCEHLLDGWLIRIGV
modifications: left off: a dimerising Fc or GST
notes: soluble fusion protein: amino acids 22-564 of human LGR5 ligated to human Fc
- induction of luciferase activity by RSPO2-Fc plus Wnt3a-conditioned medium (β-catenin signaling [1]): reduced
- induction of luciferase activity by lung tumor cell-conditioned medium and Wnt3a-conditioned medium (β-catenin signaling [1]): reduced
- reduction of tumor-derived β-catenin activity (β-catenin signaling [2]): strongly reduced
- induction of luciferase activity by lung tumor cell-conditioned medium and Wnt3a-conditioned medium (β-catenin signaling [3]): reduced
- inhibition of the LT activity potentiating Wnt3a-induced β-catenin activity (β-catenin signaling [4]; LT plus Wnt3a L-cell-conditioned medium): inhibited
- inhibition of LT medium-induced β-catenin signaling (β-catenin signaling [4]; absence of Wnt3a): reducing the response to almost control levels

— patent US9644034B2, “Anti-RSPO2 antibodies and uses thereof” (OncoMed Pharmaceuticals, Inc., priority 2011, dated 2017)
